Data: patent publication US20030059419

How the values were obtained:
[1] = target: T1, Myc-I-TRAF (human I-TRAF, full length, with a Myc epitope added to the N-terminal), Q92844
T1 chain: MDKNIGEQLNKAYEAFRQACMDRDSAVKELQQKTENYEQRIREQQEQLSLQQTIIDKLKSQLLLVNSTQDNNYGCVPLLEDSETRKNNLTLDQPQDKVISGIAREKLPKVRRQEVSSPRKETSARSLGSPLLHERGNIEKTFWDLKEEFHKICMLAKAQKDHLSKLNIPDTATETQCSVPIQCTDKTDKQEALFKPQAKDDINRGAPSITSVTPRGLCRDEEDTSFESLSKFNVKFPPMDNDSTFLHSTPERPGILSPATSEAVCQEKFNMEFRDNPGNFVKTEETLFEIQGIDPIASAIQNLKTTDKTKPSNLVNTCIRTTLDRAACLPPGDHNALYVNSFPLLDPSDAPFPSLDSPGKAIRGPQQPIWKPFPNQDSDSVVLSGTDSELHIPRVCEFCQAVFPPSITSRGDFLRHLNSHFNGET

[2] = target: GST-IκB-αN protein (AA), GST-IκB-αN with the No. 32 and No. 36 serine residues replaced by alanine [GST: P08515]
[3] = target: T2, GST-I-TRAF (human I-TRAF as a chimera protein with glutathione S transferase, purified from E. coli), Q92844
T2 chain: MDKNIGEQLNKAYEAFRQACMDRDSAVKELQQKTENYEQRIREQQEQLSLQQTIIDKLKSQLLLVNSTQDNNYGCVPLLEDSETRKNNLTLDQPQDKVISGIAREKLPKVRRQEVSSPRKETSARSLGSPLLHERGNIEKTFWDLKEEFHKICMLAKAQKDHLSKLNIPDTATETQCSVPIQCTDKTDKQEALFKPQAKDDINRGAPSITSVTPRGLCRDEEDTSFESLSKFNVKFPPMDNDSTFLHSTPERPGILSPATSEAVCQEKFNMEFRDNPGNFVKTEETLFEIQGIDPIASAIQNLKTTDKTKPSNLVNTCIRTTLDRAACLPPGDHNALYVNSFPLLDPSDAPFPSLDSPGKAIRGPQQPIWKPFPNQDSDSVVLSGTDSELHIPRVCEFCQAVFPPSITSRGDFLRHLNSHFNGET

[4] = target: Myc-I-TRAF (1-247) defective mutant, human I-TRAF amino acids No. 1-247 with N-terminal Myc, Q92844
[5] = target: GST-IκB-αN protein (WT), amino acids 1-72 of IκB-α fused to GST [GST: P08515]

Protein | in vitro kinase assay ([γ-32P]ATP) on immunoprecipitates [1] | in vitro kinase assay on immunoprecipitates, I-TRAF deletion mutants [1] | in vitro kinase assay ([γ-32P]ATP, 30° C., 20 minutes, SDS-PAGE, autoradiography) [2] | in vitro kinase assay with purified GST-I-TRAF (1.0 µg) added to the anti-Flag immunoprecipitate [3] | in vitro kinase assay on immunoprecipitates, I-TRAF deletion mutants [4] | in vitro kinase assay ([γ-32P]ATP, 30° C., 20 minutes, SDS-PAGE, autoradiography) [5]
Flag-IKK-i (human IKK-i with a Flag epitope linked to the N-terminal) (protein) MQSTANYLWHTDDLLGQGATASVYKARNKKSGELVAVKVFNTTSYLRPREVQVREFEVLRKLNHQNIVKLFAVEETGGSRQKVLVMEYCSSGSLLSVLESPENAFGLPEDEFLVVLRCVVAGMNHLRENGIVHRDIKPGNIMRLVGEEGQSIYKLTDFGAARELDDDEKFVSVYGTEEYLHPDMYERAVLRKPQQKAFGVTVDLWSIGVTLYHAATGSLPFIPFGGPRRNKEIMYRITTEKPAGAIAGAQRRENGPLEWSYTLPITCQLSLGLQSQLVPILANILEVEQAKCWGFDQFFAETSDILQRVVVHVFSLSQAVLHHIYIHAHNTIAIFQEAVHKQTSVAPRHQEYLFEGHLCVLEPSVSAQHIAHTTASSPLTLFSTAIPKGLAFRDPALDVPKFVPKVDLQADYNTAKGVLGAGYQALRLARALLDGQELMFRGLHWVMEVLQATCRRTLEVARTSLLYLSSSLGTERFSSVAGTPEIQELKAAAELRSRLRTLAEVLSRCSQNITETQESLSSLNRELVKSRDQVHEDRSIQQIQCCLDKMNFIYKQFKKSRMRPGLGYNEEQIHKLDKVNFSHLAKRLLQVFQEECVQKYQASLVTHGKRMRVVHETRNHLRLVGCSVAACNTEAQGVQESLSKLLEELSHQLLQDRAKGAQASPPPIAPYPSPTRKDLLLHMQELCEGMKLLASDLLDNNRIIERLNRVPAPPDV | Bands of phosphorylated Myc-I-TRAF were detected in both of immunoprecipitates with anti-Flag antibody (lane 2) or anti-Myc antibody (lane 4) | phosphorylations of FL (lanes 4 and 8) and Myc-I-TRAF (1-247)(lanes 2 and 6) were confirmed | IKK-i did not phosphorylate GST-IκB-αN protein (AA) | in cells in which Flag-IKK-i was expressed, phosphorylation of GST-I-TRAF was observed | phosphorylations of FL (lanes 4 and 8) and Myc-I-TRAF (1-247)(lanes 2 and 6) were confirmed | IKK-i phosphorylated GST-IκB-αN protein (WT)
mutant IKK-i (K38A), Flag-tagged human IKK-i with the No. 38 lysine replaced by alanine (protein) MQSTANYLWHTDDLLGQGATASVYKARNKKSGELVAVAVFNTTSYLRPREVQVREFEVLRKLNHQNIVKLFAVEETGGSRQKVLVMEYCSSGSLLSVLESPENAFGLPEDEFLVVLRCVVAGMNHLRENGIVHRDIKPGNIMRLVGEEGQSIYKLTDFGAARELDDDEKFVSVYGTEEYLHPDMYERAVLRKPQQKAFGVTVDLWSIGVTLYHAATGSLPFIPFGGPRRNKEIMYRITTEKPAGAIAGAQRRENGPLEWSYTLPITCQLSLGLQSQLVPILANILEVEQAKCWGFDQFFAETSDILQRVVVHVFSLSQAVLHHIYIHAHNTIAIFQEAVHKQTSVAPRHQEYLFEGHLCVLEPSVSAQHIAHTTASSPLTLFSTAIPKGLAFRDPALDVPKFVPKVDLQADYNTAKGVLGAGYQALRLARALLDGQELMFRGLHWVMEVLQATCRRTLEVARTSLLYLSSSLGTERFSSVAGTPEIQELKAAAELRSRLRTLAEVLSRCSQNITETQESLSSLNRELVKSRDQVHEDRSIQQIQCCLDKMNFIYKQFKKSRMRPGLGYNEEQIHKLDKVNFSHLAKRLLQVFQEECVQKYQASLVTHGKRMRVVHETRNHLRLVGCSVAACNTEAQGVQESLSKLLEELSHQLLQDRAKGAQASPPPIAPYPSPTRKDLLLHMQELCEGMKLLASDLLDNNRIIERLNRVPAPPDV | – | – | – | No phosphorylation was observed with the K38A mutant | – | K38A-IKK-i did not phosphorylate GST-IκB-αN protein (WT)
